Experimental data as given in US20190330316A1 (PROTHENA BIOSCIENCES, published 2019).
Ends that are not written are not given here.

Experiments:
[1] = biological target: T1, 4R0N human tau (383 amino acids) (human, UniProt P10636 1-758, radio-iodinated (125I) in the precipitation screen); assay: precipitation of 125I-labeled tau by hybridoma supernatants
T1 construct: Purified from SF9 cells infected with a tau baculovirus construct; also called 4RON human tau; 4R0N tau
Description: Monoclonal antibody 16G7 was prepared according to a modification of the method of Kohler and Milstein (G. Kohler and C. Milstein (1975) Nature 256:495-497). Human tau containing all 4 microtubule binding repeats, and lacking the N-terminal splice variants (4R0N tau, 383 amino acids) was used in all injections and screening assays. Tau was purified from SF9 cells infected with a tau-containing baculovirus construct (J. Knops et al. (1991) J Cell Biol 115(5):725-33). Six week old ALI mice were injected with 100 μg of purified tau at two week intervals. Tau was emulsified in complete Freund's adjuvant for the first immunization and in incomplete Freund's adjuvant for all subsequent immunizations. Serum samples were taken three days after the third injection to assess the titer of these animals. The highest titer mouse was injected intravenously with 100 μg of tau in 500 μL of PBS two weeks after receiving its third injection. The myeloma fusion occurred three days later using SP2/0 as the fusion partner. Supernatants from wells containing hybridoma cells were screened for their ability to precipitate ¹²⁵I-labeled tau. Tau was radio-iodinated using immobilized glucose oxidase and lactoperoxidase according to the manufacturer's instructions (Bio-Rad). […] The isotypes of 16G7 was determined to be gamma 1 kappa.

[2] = biological target: T2, biotinylated peptide spanning amino acid residues 64-78 of SEQ ID NO:3 (human, also: biotinylated, position not given here); assay: ELISA, biotinylated peptides on streptavidin plate
T2 peptide: VTQARMVSKSKDGTG
Description: (§1) A range of overlapping biotinylated peptides spanning the entire 383aa 4RON human tau protein were used for mapping the murine 16G7 antibody. Additional peptides were used to model potential post-translational modifications of the C- and N-terminal ends of the protein.
(§2) Biotinylated peptides were bound to separate wells of a streptavidin-coated ELISA plate. The plate was blocked and treated with murine 16G7, followed by incubation with a horseradish peroxidase-conjugated anti-mouse antibody. After thorough washing, OPD was applied to the plate and allowed to develop. The plate was read at 450 nm absorbance. Background subtraction was performed with absorbance values from wells containing no primary antibody, and a threshold for positive binding was set to 0.2 absorbance units.

[3] = biological target: T3, biotinylated peptide spanning amino acid residues 55-69 of SEQ ID NO:3 (human, also: biotinylated, position not given here); assay: ELISA, biotinylated peptides on streptavidin plate
T3 peptide: SLEDEAAGHVTQARM
Description: as §1, §2

Measured: binding result

T1 sequence (P10636 other isoform, or with tags, fused parts or gaps limits assumed): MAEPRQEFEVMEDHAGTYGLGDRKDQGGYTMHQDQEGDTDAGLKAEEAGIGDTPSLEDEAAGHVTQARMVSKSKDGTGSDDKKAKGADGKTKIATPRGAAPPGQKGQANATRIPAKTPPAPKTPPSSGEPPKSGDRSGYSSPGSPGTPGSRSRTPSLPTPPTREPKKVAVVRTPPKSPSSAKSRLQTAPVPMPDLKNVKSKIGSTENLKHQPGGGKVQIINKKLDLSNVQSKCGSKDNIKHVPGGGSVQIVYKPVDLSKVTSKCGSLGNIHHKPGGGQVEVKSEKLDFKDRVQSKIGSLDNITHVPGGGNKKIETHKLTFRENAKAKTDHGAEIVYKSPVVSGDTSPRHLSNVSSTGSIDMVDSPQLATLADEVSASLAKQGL

B1: murine 16G7 monoclonal antibody (antibody, V domains shown)
VH: QVQLQQPGSVLVRPGASVKLSCKASGYTFTSSWIHWAKQRPGQGLEWIGEIYPNSGNTNYNEKFKGKATLTVDISSSTAYVDLTSLTSEDSAVYYCARLGWLIPLDYWGQGTTLIVSS
VL: DIVLSQSPSSLAVSVGEKVTMSCKSSQSLLDGNDQKNYLAWYQQKPGQSPKLLMYWASTRESGVPDRFTGSGSGTDFTLTISSLKAEDLAVYYCQQFYDYPWTFGGGTKLEIKR
notes: also called mouse 16G7; m16G7
binds: [1] | [2] | [3]
